From patent EP4184166A1 (FNCT Biotech, Inc., dated 2023) come the findings set out here.

For this test, the target named is T1, SRC (UniProt P12931 2-536, limits assumed).
T1 construct: whole, on cells; Endogenous intracellular protein in cell lysates or stained cells; also called p-SRC (phosphorylated form)
Description: immunoprecipitation with ICAM-1 Tyr512 mutants.

B1: ICAM-1 Y512A mutant (receptor)
chain: QTSVSPSKVILPRGGSVLVTCSTSCDQPKLLGIETPLPKKELLLPGNNRKVYELSNVQEDSQPMCYSNCPDGQSTAKTFLTVYWTPERVELAPLPSWQPVGKNLTLRCQVEGGAPRANLTVVLLRGEKELKREPAVGEPAEVTTTVLVRRDHHGANFSCRTELDLRPQGLELFENTSAPYQLQTFVLPATPPQLVSPRVLEVDTQGTVVCSLDGLFPVSEAQVHLALGDQRLNPTVTYGNDSFSAKASVSVTAEDEGTQRLTCAVILGNQSQETLQTVTIYSFPAPNVILTKPEVSEGTEVTVKCEAHPRAKVTLNGVPAQPLGPRAQLLLKATPEDNGRSFSCSATLEVAGQLIHKNQTRELRVLYGPRLDERDCPGNWTWPENSQQTPMCQAWGNPLPELKCLKDGTFPLPIGESVTVTRDLEGTYLCRARSTQGEVTRKVTVNVLSPRYEIVIITVVAAAVIMGTAGLSTYLYNRQRKIKKARLQQAQKGTPMKPNTQATPP
notes: Mutant expressed in cells for immunoprecipitation
Turning to B1, the binding result was “binds”.

B2: ICAM-1 Y512D mutant (receptor)
chain: QTSVSPSKVILPRGGSVLVTCSTSCDQPKLLGIETPLPKKELLLPGNNRKVYELSNVQEDSQPMCYSNCPDGQSTAKTFLTVYWTPERVELAPLPSWQPVGKNLTLRCQVEGGAPRANLTVVLLRGEKELKREPAVGEPAEVTTTVLVRRDHHGANFSCRTELDLRPQGLELFENTSAPYQLQTFVLPATPPQLVSPRVLEVDTQGTVVCSLDGLFPVSEAQVHLALGDQRLNPTVTYGNDSFSAKASVSVTAEDEGTQRLTCAVILGNQSQETLQTVTIYSFPAPNVILTKPEVSEGTEVTVKCEAHPRAKVTLNGVPAQPLGPRAQLLLKATPEDNGRSFSCSATLEVAGQLIHKNQTRELRVLYGPRLDERDCPGNWTWPENSQQTPMCQAWGNPLPELKCLKDGTFPLPIGESVTVTRDLEGTYLCRARSTQGEVTRKVTVNVLSPRYEIVIITVVAAAVIMGTAGLSTYLYNRQRKIKKDRLQQAQKGTPMKPNTQATPP
notes: as for B1
Regarding B2, the binding result is “binds”.
